Source: publication PMC9825189

Molecular target: Csx30 (purified, for ITC) (Candidatus 'Scalindua brodae')
Experiment: ITC

In the case of “RpoE (purified, for ITC) (natural protein)”, the stoichiometry N is reported as 1.
